Experimental data published in patent US20130217060A1 (Butamax(TM) Advanced Biofuels LLC, priority 2007, published 2013).

B1: TER CAC0462 protein: putative trans-2-enoyl-CoA reductase (SEQ ID NO:10) from C. acetobutylicum ATCC 824 expressed in E. coli (protein, listed as Clostridium acetobutylicum)
chain: MIVKAKFVKGFIRDVHPYGCRREVLNQIDYCKKAIGFRGPKKVLIVGASSGFGLATRISVAFGGPEAHTIGVSYETGATDRRIGTAGWYNNIFFKEFAKKKGLVAKNFIEDAFSNETKDKVIKYIKDEFGKIDLFVYSLAAPRRKDYKTGNVYTSRIKTILGDFEGPTIDVERDEITLKKVSSASIEEIEETRKVMGGEDWQEWCEELLYEDCFSDKATTIAYSYIGSPRTYKIYREGTIGIAKKDLEDKAKLINEKLNRVIGGRAFVSVNKALVTKASAYIPTFPLYAAILYKVMKEKNIHENCIMQIERMFSEKIYSNEKIQFDDKGRLRMDDLELRKDVQDEVDRIWSNITPENFKELSDYKGYKKEFMNLNGFDLDGVDYSKDLDIELLRKLEP
B2: Ald protein: butyraldehyde dehydrogenase (SEQ ID NO:12) from C. beijerinckii ATCC 35702 expressed in E. coli (protein, listed as Clostridium beijerinckii)
chain: MNKDTLIPTTKDLKVKTNGENINLKNYKDNSSCFGVFENVENAISSAVHAQKILSLHYTKEQREKIITEIRKAALQNKEVLATMILEETHMGRYEDKILKHELVAKYTPGTEDLTTTAWSGDNGLTVVEMSPYGVIGAITPSTNPTETVICNSIGMIAAGNAVVFNGHPCAKKCVAFAVEMINKAIISCGGPENLVTTIKNPTMESLDAIIKHPSIKLLCGTGGPGMVKTLLNSGKKAIGAGAGNPPVIVDDTADIEKAGRSIIEGCSFDNNLPCIAEKEVFVFENVADDLISNMLKNNAVIINEDQVSKLIDLVLQKNNETQEYFINKKWVGKDAKLFLDEIDVESPSNVKCIICEVNANHPFVMTELMMPILPIVRVKDIDEAIKYAKIAEQNRKHSAYIYSKNIDNLNRFEREIDTTIFVKNAKSFAGVGYEAEGFTTFTIAGSTGEGITSARNFTRQRRCVLAG

Columns and labels:
[1] = system: trans-2-enoyl-CoA reductase; assay: Trans-2-enoyl-CoA reductase activity assay (Hoffmeister et al.); format: biochemical; settings: induced E. coli BL21-AI culture carrying pRARE, one typical assay
Method: Trans-2-enoyl-CoA reductase activity was assayed as described by Hoffmeister et al. (J. Biol. Chem. 280, 4329-4338 (2005)).
Trans-2-enoyl-CoA reductase activity was assayed as described by Hoffmeister et al., J. Biol. Chem. 280:4329 (2005).
Enzyme assays were performed as described above.

[2] = system: butyraldehyde dehydrogenase; assay: Acylating aldehyde dehydrogenase activity (NADH formation, 340 nm); settings: induced E. coli BL21-AI culture, one typical assay

Row | Molecule | specific activity (trans-2-enoyl-CoA reductase) [1] | specific activity (acylating aldehyde dehydrogenase) [2]
1 | B1 | 0.694 µmol/mg/min | 
2 | B2 |  | 0.106 µmol/mg/min
